± gives the uncertainty stated by the source.
Assay: self-splicing fitness, log relative to wild type (ln ratio); higher = more splicing; Tetrahymena group I intron in knt gene, E. coli kanamycin selection, DiMSum; sequences stand for … in CUCUCU…GGAGGGAAAAGUUAUCAGGCAUGCACCUGGUAGCUAGUCUUUAAACCAAUAGAUUGCAUCGGUUUAAAAGGCAAGACCGUCAAAUUGCGGGAAAGGGGUCAACAGCCGUUCAGUACCAAGUCUCAGGGGAAACUUUGAGAUGGCCUUGCAAAGGGUAUGGUAAUAAGCUGACGGACAUGGUCCUAACCACGCAGCCAAGUCCUAAGUCAACAGAUCUUCUGUUGAUAUGGAUGCAGUUCACAGACUAAAUGUCGGUCGGGGAAGAUGUAUUCUUCUCAUAAGAUAUAGUCGGACCUCUCCUUAAUGGGAGCUAGCGGAUGAAGUGAUGCAACACUGGAGCCGCUGGGAACUAAUUUGUAUGCGAAAGUAUAUUGAUUAGUUUUGGAGUACUCGUGGUCG
Procedure, shortened: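 A randomised library covering all eight P1ex-region intron nucleotides was built with the intron in the knt kanamycin-resistance gene on pET-22b(+) and held in E. coli BL21(DE3). Cells were grown overnight at 37°C or 30°C on LB agar, with or without 25 μg/mL kanamycin, plus 100 μg/mL carbenicillin, 50 μM IPTG and 0.2% rhamnose, and pooled colonies were amplicon-sequenced on an Illumina HiSeq 2500. DiMSum fitness is the error-weighted combination of wild-type-normalised replicate fold changes, kanamycin versus none.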

Sequence	self-splicing fitness (ln) (30 °C)	self-splicing fitness (ln) (37 °C)
AGUCAGCAAUAUUACGACGU	0.702 ± 0.092	-0.164 ± 0.096
AGUCAGCAAUAUUACGAGUG	-2.14 ± 0.079	-0.966 ± 0.095
AGUCAGCAAUAUUACGAUGA	-0.22 ± 0.057	-0.0826 ± 0.071
AGUCAGCAAUAUUACGCAGG	-2.85 ± 0.26	-2.92 ± 0.43
AGUCAGCAAUAUUACGCAUG	-2.04 ± 0.14	-1.12 ± 0.13
AGUCAGCAAUAUUACGCCAA	-2.75 ± 0.34	-0.963 ± 0.2
AGUCAGCAAUAUUACGCGCA	-0.326 ± 0.11	0.452 ± 0.17
AGUCAGCAAUAUUACGCGCG	0.157 ± 0.12	-0.374 ± 0.13
AGUCAGCAAUAUUACGCUCG	-0.828 ± 0.075	-0.495 ± 0.098
AGUCAGCAAUAUUACGGAGG	-2.93 ± 0.13	-1.31 ± 0.15
AGUCAGCAAUAUUACGGCAC	-0.122 ± 0.093	-0.255 ± 0.14
AGUCAGCAAUAUUACGGCGC	-0.611 ± 0.13	-0.0744 ± 0.18
AGUCAGCAAUAUUACGGCUG	-0.616 ± 0.12	-1.96 ± 0.22
AGUCAGCAAUAUUACGGGGC		-2.31 ± 0.45
AGUCAGCAAUAUUACGUAAA	-1.71 ± 0.12	-0.231 ± 0.11
AGUCAGCAAUAUUACGUGUU	-0.875 ± 0.061	-0.392 ± 0.096
AGUCAGCAAUAUUACGUUUC	-3.63 ± 0.15	-1.34 ± 0.11
AGUGAGCAAUAUUACGACAU	-1.07 ± 0.014	-0.531 ± 0.034
AGUGAGCAAUAUUACGACCG		-0.72 ± 0.27
AGUGAGCAAUAUUACGACUU	-1.18 ± 0.17	-0.93 ± 0.19
AGUGAGCAAUAUUACGAUAA	-4.08 ± 0.33	-2.16 ± 0.25
AGUGAGCAAUAUUACGAUCG	-0.663 ± 0.23	-0.975 ± 0.24

Sequence	self-splicing fitness (ln) (30 °C)	self-splicing fitness (ln) (37 °C)
AGUGAGCAAUAUUACGCAUU	-2.55 ± 0.21	-1.4 ± 0.19
AGUGAGCAAUAUUACGCCGC	-1.96 ± 0.25	-0.183 ± 0.22
AGUGAGCAAUAUUACGCGAU	-3.96 ± 0.42	-1.8 ± 0.24
AGUGAGCAAUAUUACGCGUA	-1.97 ± 0.27	-1.48 ± 0.17
AGUGAGCAAUAUUACGCGUU	-3.04 ± 0.19	-2.18 ± 0.18
AGUGAGCAAUAUUACGCUGG		-2.84 ± 0.41
AGUGAGCAAUAUUACGGCAG	-3.28 ± 0.28	-1.43 ± 0.24
AGUGAGCAAUAUUACGGCCC	-1.16 ± 0.39	
AGUGAGCAAUAUUACGGGCC	-3.49 ± 0.4	-2.02 ± 0.34
AGUGAGCAAUAUUACGGGGG	-3.05 ± 0.31	-2.87 ± 0.3
AGUGAGCAAUAUUACGGGUG	-3.71 ± 0.17	-2.79 ± 0.21
AGUGAGCAAUAUUACGGUUU	-2.09 ± 0.14	-2.28 ± 0.33
AGUGAGCAAUAUUACGUACU	-1.71 ± 0.13	-1.15 ± 0.17
AGUGAGCAAUAUUACGUCAG	-3 ± 0.21	-2.56 ± 0.23
AGUGAGCAAUAUUACGUGGG	-3.7 ± 0.29	-2.51 ± 0.23
AGUGAGCAAUAUUACGUUCC	-4 ± 0.34	-1.47 ± 0.16
AGUUAGCAAUAUUACGAAAG	-4.09 ± 0.21	-2.82 ± 0.24
AGUUAGCAAUAUUACGAACU	-1.59 ± 0.23	-1.89 ± 0.28
AGUUAGCAAUAUUACGACUU	-1.32 ± 0.078	-0.587 ± 0.12
AGUUAGCAAUAUUACGAGUU	-1.5 ± 0.086	-0.514 ± 0.11
AGUUAGCAAUAUUACGAUCG	-0.446 ± 0.1	-0.0837 ± 0.12

Reference: the supplement of paper PMC7877785
